What was measured:
[1] = virus release efficiency, p24 western blot, 293T; conditions: glycan changed form; control: untreated, same construct
[2] = flow cytometry, surface anti-HA, 293T; conditions: glycan changed form; control: untreated, same construct
[3] = virus release efficiency, p24 western blot, 293T
[4] = flow cytometry, surface anti-HA, 293T
[5] = anti-HA western blot of 293T lysates; conditions: glycan lost
[6] = virus release efficiency, HeLa endogenous tetherin; conditions: glycan changed form; control: untreated HeLa
[7] = flow cytometry, surface anti-tetherin, HeLa; conditions: glycan changed form; control: untreated HeLa
[8] = immunofluorescence microscopy, anti-tetherin, HeLa; conditions: glycan changed form; control: untreated HeLa
[9] = glycan lost, control: untreated WT tetherin
[10] = glycan lost, control: wild type
[11] = glycan changed form, control: untreated, same construct

tetherin: kifunensine (N92A tetherin)
other: restriction of HIV-1 release [1]: no change | localisation_or_trafficking [2]: decreases

tetherin: kifunensine (N65A tetherin)
other: restriction of HIV-1 release [1]: no change | localisation_or_trafficking [2]: decreases

B1: tetherin: tunicamycin (protein)
parent chain: MASTSYDYCRVPMEDGDKRCKLLLGIGILVLLIIVILGVPLIIFTIKANSEACRDGLRAVMECRNVTHLLQQELTEAQKGFQDVEAQAATCNHTVMALMASLDAEKAQGQKKVEELEGEITTLNHKLQDASAEVERLRRENQVLSVRIADKKYYPSSQDSSSAAAPQLLIVLLGLSALLQ
other: restriction of HIV-1 release, fold_change [3, 9]: decreases | localisation_or_trafficking [4, 9]: decreases | expression_or_secretion ([5]; control: untreated WT tetherin): no change

B2: tetherin: N65,92A (protein)
parent chain: MASTSYDYCRVPMEDGDKRCKLLLGIGILVLLIIVILGVPLIIFTIKANSEACRDGLRAVMECRNVTHLLQQELTEAQKGFQDVEAQAATCNHTVMALMASLDAEKAQGQKKVEELEGEITTLNHKLQDASAEVERLRRENQVLSVRIADKKYYPSSQDSSSAAAPQLLIVLLGLSALLQ
other: restriction of HIV-1 release [3, 10]: abolishes, there was a small (25%) decrease in VRE at 0.8 μg of input DNA | localisation_or_trafficking [4, 10]: decreases | expression_or_secretion ([5]; control: wild type): increases

B3: tetherin: N65A (protein)
parent chain: MASTSYDYCRVPMEDGDKRCKLLLGIGILVLLIIVILGVPLIIFTIKANSEACRDGLRAVMECRNVTHLLQQELTEAQKGFQDVEAQAATCNHTVMALMASLDAEKAQGQKKVEELEGEITTLNHKLQDASAEVERLRRENQVLSVRIADKKYYPSSQDSSSAAAPQLLIVLLGLSALLQ
other: restriction of HIV-1 release [3, 10]: no change | localisation_or_trafficking [4, 10]: no change | expression_or_secretion ([5]; control: wild type): no change

B4: tetherin: N92A (protein)
parent chain: MASTSYDYCRVPMEDGDKRCKLLLGIGILVLLIIVILGVPLIIFTIKANSEACRDGLRAVMECRNVTHLLQQELTEAQKGFQDVEAQAATCNHTVMALMASLDAEKAQGQKKVEELEGEITTLNHKLQDASAEVERLRRENQVLSVRIADKKYYPSSQDSSSAAAPQLLIVLLGLSALLQ
other: restriction of HIV-1 release [3, 10]: no change | localisation_or_trafficking [4, 10]: no change | expression_or_secretion ([5]; control: wild type): no change

B5: tetherin: kifunensine (WT tetherin) (protein)
parent chain: MASTSYDYCRVPMEDGDKRCKLLLGIGILVLLIIVILGVPLIIFTIKANSEACRDGLRAVMECRNVTHLLQQELTEAQKGFQDVEAQAATCNHTVMALMASLDAEKAQGQKKVEELEGEITTLNHKLQDASAEVERLRRENQVLSVRIADKKYYPSSQDSSSAAAPQLLIVLLGLSALLQ
other: restriction of HIV-1 release [3, 11]: no change | localisation_or_trafficking [4, 11]: decreases

B6: tetherin: kifunensine (protein)
parent chain: MASTSYDYCRVPMEDGDKRCKLLLGIGILVLLIIVILGVPLIIFTIKANSEACRDGLRAVMECRNVTHLLQQELTEAQKGFQDVEAQAATCNHTVMALMASLDAEKAQGQKKVEELEGEITTLNHKLQDASAEVERLRRENQVLSVRIADKKYYPSSQDSSSAAAPQLLIVLLGLSALLQ
other: restriction of HIV-1 release [6]: no change | localisation_or_trafficking [7]: no change | localisation_or_trafficking [8]: no change
